Here are results for 1 molecule from paper PMC4453530.

In series [1] the target is EPRS purified recombinant (UniProt P07814 1-1512). Put plainly: EMSA. On the technique in general: In EMSA bound probe runs differently from free probe, usually more slowly.
The next series has as its target T1, DDK/Myc tag peptide.
T1 chain: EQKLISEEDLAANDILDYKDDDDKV
The series is described as follows: EMSA.

Chain of EPRS purified recombinant (P07814 whole entry): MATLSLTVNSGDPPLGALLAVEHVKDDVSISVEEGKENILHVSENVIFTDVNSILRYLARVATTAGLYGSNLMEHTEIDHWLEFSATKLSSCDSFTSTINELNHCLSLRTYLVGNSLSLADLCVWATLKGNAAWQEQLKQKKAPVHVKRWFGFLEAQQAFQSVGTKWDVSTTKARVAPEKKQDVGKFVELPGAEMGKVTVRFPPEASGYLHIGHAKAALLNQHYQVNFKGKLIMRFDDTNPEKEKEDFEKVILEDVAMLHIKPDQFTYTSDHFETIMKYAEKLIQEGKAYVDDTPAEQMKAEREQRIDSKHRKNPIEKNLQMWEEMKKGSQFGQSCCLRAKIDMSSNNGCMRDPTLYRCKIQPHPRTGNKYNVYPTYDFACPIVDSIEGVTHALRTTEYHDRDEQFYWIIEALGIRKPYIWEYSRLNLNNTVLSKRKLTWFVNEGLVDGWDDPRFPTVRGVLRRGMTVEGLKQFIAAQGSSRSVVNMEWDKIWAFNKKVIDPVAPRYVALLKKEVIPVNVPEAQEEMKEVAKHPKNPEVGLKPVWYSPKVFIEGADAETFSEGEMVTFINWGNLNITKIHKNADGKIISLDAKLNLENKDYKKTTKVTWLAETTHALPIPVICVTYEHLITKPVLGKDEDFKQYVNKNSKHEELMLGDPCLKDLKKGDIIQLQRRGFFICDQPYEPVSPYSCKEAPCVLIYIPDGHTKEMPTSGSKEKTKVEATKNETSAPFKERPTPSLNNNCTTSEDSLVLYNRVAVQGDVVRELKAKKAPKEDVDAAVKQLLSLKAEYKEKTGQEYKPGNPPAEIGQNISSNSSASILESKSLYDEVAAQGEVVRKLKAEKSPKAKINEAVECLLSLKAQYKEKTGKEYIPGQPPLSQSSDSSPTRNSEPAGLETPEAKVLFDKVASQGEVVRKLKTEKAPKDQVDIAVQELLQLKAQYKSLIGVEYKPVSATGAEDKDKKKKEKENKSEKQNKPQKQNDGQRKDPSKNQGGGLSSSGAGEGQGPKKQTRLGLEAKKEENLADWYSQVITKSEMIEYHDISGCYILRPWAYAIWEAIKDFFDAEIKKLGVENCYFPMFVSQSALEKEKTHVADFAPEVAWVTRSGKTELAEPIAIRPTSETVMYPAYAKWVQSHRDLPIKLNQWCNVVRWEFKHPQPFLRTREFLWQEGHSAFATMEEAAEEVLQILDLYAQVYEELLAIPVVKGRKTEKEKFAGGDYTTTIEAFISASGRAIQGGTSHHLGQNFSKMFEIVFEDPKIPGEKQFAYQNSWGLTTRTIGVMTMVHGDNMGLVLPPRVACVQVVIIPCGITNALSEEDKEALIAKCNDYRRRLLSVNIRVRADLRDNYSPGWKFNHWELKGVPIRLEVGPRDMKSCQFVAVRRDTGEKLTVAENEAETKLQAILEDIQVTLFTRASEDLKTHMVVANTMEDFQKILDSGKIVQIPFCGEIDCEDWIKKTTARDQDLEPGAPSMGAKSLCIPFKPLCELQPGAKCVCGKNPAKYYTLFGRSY

B1: F2.2L (TGEV GAIT-like RNA motif) (structured_RNA)
RNA: AAUCUUAAAACUGUCAAUGACUUUAAUAUCUU
For B1, the results for the binding result (in series [1]; with DDK/Myc tag peptide) were “binds” and “no binding”, respectively.
